± gives the uncertainty stated by the source.
Assay: protein stability index of a GFP-peptide fusion (yeast GPS) (PSI 1-4); higher = more stable; sorted into four equal gates, so the index is relative within each strain
In short: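 Plasmids isolated from each sorting gate were PCR-amplified and Illumina-sequenced, and barcodes assigned the reads to strains. The gates, four of equal size, were set by GFP/Cherry fluorescence ratio on mid-log cultures in leucine-free medium. These cultures were yeast carrying a pooled library of tiled 17-residue yeast protein peptides fused downstream of GFP on a plasmid that also expresses Cherry. The protein stability index is the sum of every gate's read frequency times its gate number.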

## NANQQFLPFNNSASNNG [SWI1]
doa10∆
  protein stability index: 3 ± 0.052
pdr5∆
  protein stability index: 2.97 ± 0.052
san1∆
  protein stability index: 2.96 ± 0.042
ubr1∆
  protein stability index: 3.02 ± 0.06

## SSKTRNVLNRIQELEDQ [ITC1]
doa10∆
  protein stability index: 1.35 ± 0.088
pdr5∆
  protein stability index: 1.16 ± 0.051
ubr1∆
  protein stability index: 1.18 ± 0.058

## VEEVIKLVRDSFTSATE [PRE7]
doa10∆
  protein stability index: 3.06 ± 0.078
pdr5∆
  protein stability index: 3.33 ± 0.066
san1∆
  protein stability index: 3.18 ± 0.052
ubr1∆
  protein stability index: 3 ± 0.061

## YLHNVELGEKKNEKLKF [ISW2]
doa10∆
  protein stability index: 2.84 ± 0.083
pdr5∆
  protein stability index: 2.68 ± 0.094
san1∆
  protein stability index: 2.89 ± 0.096
ubr1∆
  protein stability index: 2.87 ± 0.1

## AQAQAQAQAQAHAQHQP [GAL11]
doa10∆
  protein stability index: 2.81 ± 0.029
pdr5∆
  protein stability index: 2.926 ± 0.023
san1∆
  protein stability index: 2.834 ± 0.027
ubr1∆
  protein stability index: 3.032 ± 0.024

## IIKKDEVVKRYLKMRQD [PUP3]
doa10∆
  protein stability index: 3.66 ± 0.2

## DNSPSEDFMDIPKPRTA [SNF2]
doa10∆
  protein stability index: 2.57 ± 0.16
pdr5∆
  protein stability index: 2.83 ± 0.11
ubr1∆
  protein stability index: 2.77 ± 0.19

## VVSAVGEARNDIENKEE [YAR002W/NUP60]
doa10∆
  protein stability index: 2.92 ± 0.056
pdr5∆
  protein stability index: 3.17 ± 0.066
san1∆
  protein stability index: 3.08 ± 0.041
ubr1∆
  protein stability index: 2.9 ± 0.076

## SNETIGEIQLLFQRQKL [IRR1]
doa10∆
  protein stability index: 2.61 ± 0.22
pdr5∆
  protein stability index: 2.8 ± 0.17
san1∆
  protein stability index: 3.14 ± 0.14

## AEKKIPLVIRRYLPDGS [RPO26]
doa10∆
  protein stability index: 2.79 ± 0.09
pdr5∆
  protein stability index: 2.54 ± 0.12
san1∆
  protein stability index: 3.45 ± 0.066

## KRAEKAARKAEKAKSAG [RPL24B]
doa10∆
  protein stability index: 2.91 ± 0.073
pdr5∆
  protein stability index: 2.48 ± 0.051
san1∆
  protein stability index: 1.55 ± 0.087
ubr1∆
  protein stability index: 2.92 ± 0.04

## QSQPQEKFSEKMLKIWT [ECM29]
doa10∆
  protein stability index: 3.57 ± 0.26
pdr5∆
  protein stability index: 3.08 ± 0.15
san1∆
  protein stability index: 2.9 ± 0.21
ubr1∆
  protein stability index: 3.03 ± 0.2

## LISLIMTTWRKLYTKEL [YMR129W/POM152]
doa10∆
  protein stability index: 2.35 ± 0.092
pdr5∆
  protein stability index: 1.15 ± 0.093
san1∆
  protein stability index: 1.42 ± 0.17
ubr1∆
  protein stability index: 1.16 ± 0.044

## YGILSIDDLIHEIITVG [RPL7A]
doa10∆
  protein stability index: 2.36 ± 0.079
pdr5∆
  protein stability index: 2.37 ± 0.1
san1∆
  protein stability index: 2.58 ± 0.11
ubr1∆
  protein stability index: 1.56 ± 0.061

## ENIIQMEMIENRTMDGK [FAS1]
doa10∆
  protein stability index: 2.78 ± 0.084
pdr5∆
  protein stability index: 2.81 ± 0.11
san1∆
  protein stability index: 2.81 ± 0.12
ubr1∆
  protein stability index: 3.02 ± 0.069

## ALRALQENGTIFRGSLI [YDL088C/ASM4]
doa10∆
  protein stability index: 2.02 ± 0.11
pdr5∆
  protein stability index: 1.68 ± 0.076
san1∆
  protein stability index: 1.28 ± 0.1
ubr1∆
  protein stability index: 1.53 ± 0.092

## IGEGAKLVRDAFALAKE [RPT5]
doa10∆
  protein stability index: 3.51 ± 0.12
pdr5∆
  protein stability index: 3.38 ± 0.14
san1∆
  protein stability index: 3.3 ± 0.093
ubr1∆
  protein stability index: 3.5 ± 0.11

## NLNDKFGIYILTQGING [MED1]
doa10∆
  protein stability index: 1.54 ± 0.04
pdr5∆
  protein stability index: 1.47 ± 0.032
san1∆
  protein stability index: 1.6 ± 0.096
ubr1∆
  protein stability index: 1.43 ± 0.031

## EESISKFPDMGSLWVEF [RPB5]
doa10∆
  protein stability index: 2.53 ± 0.073
pdr5∆
  protein stability index: 2.98 ± 0.1
san1∆
  protein stability index: 2.77 ± 0.1
ubr1∆
  protein stability index: 2.71 ± 0.1

## QRTLSKSFYSTATGAAS [CYT1]
doa10∆
  protein stability index: 1.98 ± 0.06
pdr5∆
  protein stability index: 2.39 ± 0.054
san1∆
  protein stability index: 2.43 ± 0.068
ubr1∆
  protein stability index: 2.39 ± 0.048

## VQGMNDDIFIRYLTLLS [ECM29]
doa10∆
  protein stability index: 1.37 ± 0.053
pdr5∆
  protein stability index: 1.39 ± 0.057
san1∆
  protein stability index: 1.8 ± 0.14
ubr1∆
  protein stability index: 1.15 ± 0.031

## ELKTRDATNTSYKMIQL [SWP82]
doa10∆
  protein stability index: 3.39 ± 0.1
pdr5∆
  protein stability index: 3.5 ± 0.078
san1∆
  protein stability index: 3.16 ± 0.059
ubr1∆
  protein stability index: 3.29 ± 0.047

## ALTTIKGVGRRYSNLVC [RPS18A]
doa10∆
  protein stability index: 2.56 ± 0.089
pdr5∆
  protein stability index: 2.4 ± 0.084
san1∆
  protein stability index: 2.92 ± 0.12
ubr1∆
  protein stability index: 2.62 ± 0.077

## ITARSAFVEFGASVIAG [SWP82]
doa10∆
  protein stability index: 1.93 ± 0.11
pdr5∆
  protein stability index: 2.53 ± 0.085
san1∆
  protein stability index: 1.86 ± 0.11
ubr1∆
  protein stability index: 2.21 ± 0.054

## DVDQHGNDNNSDSNANA [SWI3]
doa10∆
  protein stability index: 3.01 ± 0.045
pdr5∆
  protein stability index: 3.25 ± 0.046
san1∆
  protein stability index: 3.245 ± 0.028
ubr1∆
  protein stability index: 3.249 ± 0.028

## LEEQQQLEDESSRLEFV [YML103C/NUP188]
doa10∆
  protein stability index: 3.43 ± 0.084
pdr5∆
  protein stability index: 3.3 ± 0.086
san1∆
  protein stability index: 3.39 ± 0.06
ubr1∆
  protein stability index: 3.46 ± 0.08

## IHALAAKLLQENDTTLV [FAS1]
doa10∆
  protein stability index: 2.53 ± 0.13
pdr5∆
  protein stability index: 2.8 ± 0.14
san1∆
  protein stability index: 2.86 ± 0.12
ubr1∆
  protein stability index: 3.33 ± 0.18

## FDEFMNVVIDEAVEIPV [SME1]
doa10∆
  protein stability index: 2.86 ± 0.056
pdr5∆
  protein stability index: 3.19 ± 0.066
san1∆
  protein stability index: 2.94 ± 0.071
ubr1∆
  protein stability index: 2.9 ± 0.045

## VSRGQSAVLLETTLGEM [PRP8]
doa10∆
  protein stability index: 2.13 ± 0.12
pdr5∆
  protein stability index: 2.36 ± 0.15

## LNLNNSELQPQNRSLQE [SNF2]
doa10∆
  protein stability index: 3.24 ± 0.046
pdr5∆
  protein stability index: 3.31 ± 0.057
san1∆
  protein stability index: 3.31 ± 0.08
ubr1∆
  protein stability index: 3.27 ± 0.055

## KPYVDRFAFSVIWELDD [DIS3]
doa10∆
  protein stability index: 1.93 ± 0.046
pdr5∆
  protein stability index: 1.98 ± 0.047
san1∆
  protein stability index: 2.15 ± 0.05
ubr1∆
  protein stability index: 2.38 ± 0.034

## GEVVYLRKQKDSSTTSS [ITC1]
doa10∆
  protein stability index: 1.79 ± 0.073
pdr5∆
  protein stability index: 1.73 ± 0.08
san1∆
  protein stability index: 1.48 ± 0.14
ubr1∆
  protein stability index: 2.23 ± 0.081

## KHKKKHLKHENANDETT [RPB4]
doa10∆
  protein stability index: 2.92 ± 0.053
pdr5∆
  protein stability index: 2.84 ± 0.085
san1∆
  protein stability index: 2.84 ± 0.11
ubr1∆
  protein stability index: 3.19 ± 0.074

## AINLMGVKNNLLTPKSG [RPO31]
doa10∆
  protein stability index: 3.11 ± 0.13
pdr5∆
  protein stability index: 2.76 ± 0.12
san1∆
  protein stability index: 2.76 ± 0.13
ubr1∆
  protein stability index: 2.63 ± 0.11

## IKGPEFKFSGTVSSDVF [YLR335W/NUP2]
pdr5∆
  protein stability index: 3.17 ± 0.18

## KVDATPEESKPINLQNG [YLR335W/NUP2]
doa10∆
  protein stability index: 2.9 ± 0.088
pdr5∆
  protein stability index: 2.95 ± 0.079
san1∆
  protein stability index: 2.8 ± 0.06
ubr1∆
  protein stability index: 3.21 ± 0.049

## YYDRKEELKNMFLYILK [RRI2]
doa10∆
  protein stability index: 2.16 ± 0.22
pdr5∆
  protein stability index: 1.95 ± 0.13
san1∆
  protein stability index: 1.27 ± 0.11
ubr1∆
  protein stability index: 1.52 ± 0.1

## THEQWSNIQRNVLFLRL [SRP72]
doa10∆
  protein stability index: 2.67 ± 0.062
pdr5∆
  protein stability index: 2.38 ± 0.062
san1∆
  protein stability index: 1.96 ± 0.077
ubr1∆
  protein stability index: 2.45 ± 0.041

## VLSQFERSYPSEFANQN [ROX3]
doa10∆
  protein stability index: 2.26 ± 0.098
pdr5∆
  protein stability index: 3.15 ± 0.097
san1∆
  protein stability index: 2.63 ± 0.15
ubr1∆
  protein stability index: 2.78 ± 0.11

## RNLNNLKQENAYLLIRR [RPB8]
doa10∆
  protein stability index: 3.14 ± 0.072
pdr5∆
  protein stability index: 3.16 ± 0.084
san1∆
  protein stability index: 3.15 ± 0.071
ubr1∆
  protein stability index: 3 ± 0.054

## GDYGEEEDADQEESFSL [SRB8]
doa10∆
  protein stability index: 3.76 ± 0.28
pdr5∆
  protein stability index: 3.63 ± 0.17

## TSLKKIKDEIDDPFTKI [SWI1]
doa10∆
  protein stability index: 3.41 ± 0.17
pdr5∆
  protein stability index: 3.24 ± 0.22
ubr1∆
  protein stability index: 3.49 ± 0.13

## EDSMIMNQSSIDRGLFR [RPB2]
doa10∆
  protein stability index: 2.55 ± 0.08
pdr5∆
  protein stability index: 2.61 ± 0.093
san1∆
  protein stability index: 2.62 ± 0.098
ubr1∆
  protein stability index: 2.91 ± 0.065

## YEEFRDVAIENNTLSRY [RRP43]
doa10∆
  protein stability index: 3.24 ± 0.042
pdr5∆
  protein stability index: 3.25 ± 0.043
san1∆
  protein stability index: 3.178 ± 0.029
ubr1∆
  protein stability index: 3.2 ± 0.035

## QKRQLHDISKTETSNED [SNU114]
doa10∆
  protein stability index: 3.06 ± 0.049
pdr5∆
  protein stability index: 2.97 ± 0.045
san1∆
  protein stability index: 2.98 ± 0.039
ubr1∆
  protein stability index: 3.044 ± 0.03

## VHKERHDGGFDLVHIKD [RPS4A]
doa10∆
  protein stability index: 1.48 ± 0.084
pdr5∆
  protein stability index: 1.94 ± 0.069
san1∆
  protein stability index: 1.61 ± 0.15
ubr1∆
  protein stability index: 1.84 ± 0.05

## SAIDVLDPLTKDPVDFV [RPN2]
doa10∆
  protein stability index: 3.21 ± 0.088
pdr5∆
  protein stability index: 3.29 ± 0.076
san1∆
  protein stability index: 3.15 ± 0.074
ubr1∆
  protein stability index: 3.12 ± 0.096

## EELVSLAVFLFDIYNRD [YJL039C/NUP192]
doa10∆
  protein stability index: 2.03 ± 0.099
pdr5∆
  protein stability index: 1.24 ± 0.059
san1∆
  protein stability index: 1.41 ± 0.2
ubr1∆
  protein stability index: 1.39 ± 0.071

## GSNQKPKYEPPVQSKFG [RPT2]
doa10∆
  protein stability index: 2.94 ± 0.13
pdr5∆
  protein stability index: 3 ± 0.15
san1∆
  protein stability index: 2.34 ± 0.22
ubr1∆
  protein stability index: 3.09 ± 0.099

## SKTSENKVSNTVSPTQD [SIR2]
doa10∆
  protein stability index: 2.98 ± 0.14
pdr5∆
  protein stability index: 3.12 ± 0.066
san1∆
  protein stability index: 2.83 ± 0.093
ubr1∆
  protein stability index: 3.15 ± 0.12

## IMATNRLDILDPALLRP [RPT6]
doa10∆
  protein stability index: 2.92 ± 0.1
pdr5∆
  protein stability index: 3.13 ± 0.092
san1∆
  protein stability index: 2.81 ± 0.065
ubr1∆
  protein stability index: 3.25 ± 0.057

## PRGTAKLIIHRKNDNAN [SMC3]
doa10∆
  protein stability index: 1.68 ± 0.29
pdr5∆
  protein stability index: 2.34 ± 0.18
ubr1∆
  protein stability index: 1.95 ± 0.087

## IKVWTIKGQCLATLLGH [ASC1]
doa10∆
  protein stability index: 2.22 ± 0.085
pdr5∆
  protein stability index: 1.59 ± 0.099
san1∆
  protein stability index: 1.69 ± 0.1
ubr1∆
  protein stability index: 1.39 ± 0.057
